Data reported in patent US20200121801A1, “DRUG DELIVERY CONJUGATES CONTAINING UNNATURAL AMINO ACIDS AND METHODS FOR USING” (priority 2012, published 2020).

Assays:
[1] = target: T1, folate receptors (FRs) on KB cells (Homo sapiens, UniProt P15328); assay: Relative affinity assay (3H-folic acid competition) on KB cells; format: binding; settings: KB cells, 1 h at 37° C.
T1 construct: FR-positive KB cells are heavily seeded into 24-well cell culture plates; endogenous in cells; host or cells: KB cells
T1 sequence (P15328 25-234): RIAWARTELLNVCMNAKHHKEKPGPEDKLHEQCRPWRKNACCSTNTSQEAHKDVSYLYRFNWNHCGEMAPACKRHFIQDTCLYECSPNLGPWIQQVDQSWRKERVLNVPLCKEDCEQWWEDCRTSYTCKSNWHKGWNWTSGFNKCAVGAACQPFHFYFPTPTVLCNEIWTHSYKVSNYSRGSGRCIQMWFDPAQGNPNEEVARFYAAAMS

RAW264.7 macrophages = assay: XTT cell viability assay on RAW264.7 macrophages; format: cell-based, murine
Method: METHOD. Inhibition of Cellular DNA Synthesis. The compounds described herein are evaluated using an in vitro cytotoxicity assay that predicts the ability of the drug to inhibit the growth of folate receptor-positive cells, such as KB cells, RAW264.7 macrophages, and the like. It is to be understood that the choice of cell type can made on the basis of the susceptibility of those selected cells to the drug that forms the conjugate. The test compounds are comprised of folate linked to a respective chemotherapeutic drug, as prepared according to the processes described herein. The test cells are exposed to varying concentrations of folate-drug conjugate, and also in the absence or presence of at least a 100-fold excess of folic acid to assess activity as being specific to folate receptor mediation.
EXAMPLE. […] The anti-proliferative activity of EC1669 is measured in a XTT cell viability assay (FIG. 2) on RAW264.7 cells after a 2-h exposure and a total of 72 h incubation.
RAW264.7 macrophages are susceptible to the drug forming the EC1669 conjugate, aminopterin. The cell viability is assessed by adding XTT (2,3-bis(2-methoxy-4-nitro-5-sulfo-phenyl)-2H-tetrazolium-5-carboxanilide) following the manufacturer's instructions. […] The observed anti-proliferative effect was 100% competable in the presence of 100-fold excess folic acid (FA), indicating a FR-specific mode of action for EC1669.

[2] = Plasma clearance after s.c. administration; format: in vivo, Lewis rats
Method: METHOD. Plasma clearance. In vivo studies include a minimum of 3 test animals, such as rats, per time point. Illustratively, female Lewis rats with jugular vein catheters (Harlan, regular rodent diet) are given a single subcutaneous injection of test compound, such as EC1669 at 500 nmol/kg. Whole blood samples (300 μL) are collected at the following time points: 1 min, 10 min, 30 min, 1 h, 2 h, 3 h, 4 h, 8 h, and 12 h after injection. The blood samples are placed into anti-coagulant tubes containing 1.7 mg/mL of K3-EDTA and 0.35 mg/mL of N-maleoyl-beta-alanine (0.35 mg/mL) in a 0.15% acetic acid solution. Plasma samples are obtained by centrifugation for 3 min at ˜2,000 g and stored at −80° C. The amounts of test compound in the plasma and any metabolites, such as EC1669 and its two active metabolites aminopterin (AMT) and AMT hydrazide (EC0470), respectively, are quantified by LC-MS/MS.

[3] = system: experimental autoimmune uveitis; assay: Experimental autoimmune uveitis (EAU) model
Method: Animal Experimental Autoimmune Uveitis Model. Experimental autoimmune uveitis (EAU) is induced in female Lewis rats maintained on a folate-deficient diet (Harlan Teklad, Indianapolis, Ind.). On Day 0, the animals are immunized subcutaneously with 25 μg of bovine S-Ag PDSAg peptide formulated with Freund's incomplete adjuvant containing 0.5 mg of grounded M. Tuberculosis H37Ra. Purified pertussis toxin (PT) is given at a dosage of 1 μg per animal on the same day via intraperitoneal injection. The severity of uveitis in each eye is assessed by a qualitative visual score system: 0=No disease, eye is translucent and reflects light (red reflex); 0.5 (trace)=Dilated blood vessels in the iris, 1=Engorged blood vessels in iris, abnormal pupil contraction; 2=Hazy anterior chamber, decreased red reflex; 3=Moderately opaque anterior chamber, but pupil still visible, dull red reflex; and 4=Opaque anterior chamber and obscured pupil, red reflex absent, proptosis. This assessment yields a maximum uveitis score of 8 per animal.
All treatments start on day 8 after EAU induction. The animals in the EAU control group are untreated. […] The uveitis score and animal body weight are recorded for each animal at predetermined frequencies. The clinical severity of EAU is monitored on a daily basis using an ophthalmoscope and graded on a scale of 0 to 4 per eye with a maximum possible score of 8 per animal. […]

## N=c1[nH]c(N)nc2ncc(CNc3ccc(C(=O)N[C@@H](CCC(=O)NNC(=O)OCCSSC[C@@H](NC(=O)[C@H](CCC(=O)NC[C@H](O)[C@@H](O)[C@H](O)[C@H](O)CO)NC(=O)[C@@H](CCC(=O)O)NC(=O)[C@H](CCC(=O)NC[C@H](O)[C@@H](O)[C@H](O)[C@H](O)CO)NC(=O)[C@@H](CCC(=O)O)NC(=O)[C@H](CCC(=O)NC[C@H](O)[C@@H](O)[C@H](O)[C@H](O)CO)NC(=O)CC[C@H](NC(=O)c4ccc(NCc5cnc6nc(N)[nH]c(=O)c6n5)cc4)C(=O)O)C(=O)O)C(=O)O)cc3)nc12 [EC1669]
[1]
  relative affinity (normalized against folic acid, set to 1): 0.53
RAW264.7 macrophages; 2-h exposure, total of 72 h incubation, read-out: relative IC50, inhibition of cell proliferation
  IC50: ~1.2 nM
RAW264.7 macrophages; 100-fold excess folic acid
  anti-proliferative effect competable by folic acid: 100%
[2]; female, Lewis, rat, in vivo, sc, EC1669 500 nmol/kg s.c., blood, read-out: elimination half-life
  half-life: ~37 min
[2]; female, Lewis, rat, in vivo, sc, EC1669 500 nmol/kg s.c., plasma, read-out: Cmax
  Cmax: ~472 nM
[2]; female, Lewis, rat, in vivo, sc, EC1669 500 nmol/kg s.c., read-out: area-under-the-curve (AUC) (converted)
  AUC: 0.867 µM·h
[2]; plasma, 12 h collection period
  % Released: AMT: 9.5%
  % Released: EC0470: 6.3%
[2]; plasma, 12 h collection period, based on AUC
  % Released: Total (AMT plus EC0470): ~15.8%
[2]; rat, in vivo
  AMT/EC0470 Ratio: 1.51
[3]; 250 nmol/kg s.c. q2d, five doses from day 8
  symptoms of EAU (uveitis score): effectively reduces the symptoms of EAU
[3]; rat, in vivo
  treatment-related weight loss / whole animal toxicity: does not cause whole animal toxicity
